Assay results from patent US20250034222A1, “IL-38 VARIANTS” (Monash University, priority 2021, published 2025).

Experiment: Nano differential scanning fluorimetry of IL-38-Fc variants (apparent melting temperature)
Assay type: physicochemical
Conditions: N-terminal IL-38-Fc variants, knobs-into-holes IgG1-Fc, IL-38 (C70V, C37S, C38R, C43A, C67A, C123S)
From the text: Indicated IL-38 chains differing in their N-terminus were expressed and purified from Expi293 cells. The relative purification yield is indicated between the N-terminal variants. The stability of the purified product was monitored by nano differential scanning fluorimetry and is expressed as the apparent melting temperature (Tm). N-terminal variants (except 2-152) were trialled as “knobs-into-holes” IgG1-Fc fusions utilising the IL-38 (C70V, C37S, C38R, C43A, C67A, C123S) sequence. The 2-152 N-terminal variant was trialled as “knobs-into-holes” IgG1-Fc fusions utilising the IL-38 (C2A, C70V, C37S, C38R, C43A, C67A, C123S) sequence.
Indicated linker variants were expressed and purified from Expi293 cells. The relative purification yield is indicated between the linker variants. The stability of the purified product was monitored by nano differential scanning fluorimetry and is expressed as the apparent melting temperature (Tm). […] All N-terminal linker variants were trialled as “knobs-into-holes” IgG1-Fc fusions utilising the IL-38 (C70V, C37S, C38R, C43A, C67A, C123S) sequence.

3-152: Knobs-into-holes IgG1-Fc fusion, IL-38 chain residues 3-152 (C70V, C37S, C38R, C43A, C67A, C123S); probably SEQ ID NO: 25/26
Stability (apparent melting temperature, Tm): 66.0 °C
